Test results from IntAct's records for PubMed 17974954.

B1: Tyrosine-protein phosphatase non-receptor type 1 (Homo sapiens), P18031 (parent)
chain: MEMEKEFEQIDKSGSWAAIYQDIRHEASDFPCRVAKLPKNKNRNRYRDVSPFDHSRIKLHQEDNDYINASLIKMEEAQRSYILTQGPLPNTCGHFWEMVWEQKSRGVVMLNRVMEKGSLKCAQYWPQKEEKEMIFEDTNLKLTLISEDIKSYYTVRQLELENLTTQETREILHFHYTTWPDFGVPESPASFLNFLFKVRESGSLSPEHGPVVVHCSAGIGRSGTFCLADTCLLLMDKRKDPSSVDIKKVLLEMRKFRMGLIQTADQLRFSYLAVIEGAKFIMGDSSVQDQWKELSHEDLEPPPEHIPPPPRPPKRILEPHNGKCREFFPNHQWVKEETQEDKDCPIKEEKGSPLNAAPYGIESMSQDTEVRSRVVGGSLRGAQAASPAKGEPSLPEKDEDHALSYWKPFLVNMCVATVLTAGAYLCYRFLFNSNT

Variants of: B1
Conditions: with src_human SRC

Variant	effect of a mutation on the interaction
C215S	disrupting interaction
